Source: article PMC8325959

Molecular target: recombinant human GST–PBD (UniProt P53350)
Assay: in vitro binding assay, western blot quantification
Details: read off a plot

Chain of UniProt P53350 (P53350 whole entry, looked up): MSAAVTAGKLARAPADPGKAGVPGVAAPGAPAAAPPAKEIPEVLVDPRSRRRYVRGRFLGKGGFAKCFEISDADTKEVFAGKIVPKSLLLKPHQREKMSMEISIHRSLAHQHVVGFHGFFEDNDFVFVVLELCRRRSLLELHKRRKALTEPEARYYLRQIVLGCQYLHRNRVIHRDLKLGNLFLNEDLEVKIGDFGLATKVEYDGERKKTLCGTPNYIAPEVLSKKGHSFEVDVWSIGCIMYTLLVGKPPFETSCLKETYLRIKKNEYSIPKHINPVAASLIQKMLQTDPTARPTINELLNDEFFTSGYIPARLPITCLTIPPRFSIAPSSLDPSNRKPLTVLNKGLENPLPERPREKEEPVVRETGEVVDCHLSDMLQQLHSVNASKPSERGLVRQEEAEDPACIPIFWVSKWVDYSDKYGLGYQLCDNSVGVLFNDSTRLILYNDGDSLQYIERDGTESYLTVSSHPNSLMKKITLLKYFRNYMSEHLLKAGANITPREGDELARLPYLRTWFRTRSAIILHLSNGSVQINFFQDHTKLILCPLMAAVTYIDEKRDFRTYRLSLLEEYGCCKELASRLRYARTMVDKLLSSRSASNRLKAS

## MBP–CTb (WT Ana1 CTb fragment), phosphorylated by Aurora A in vitro S10T
Repeat Aurora #1, MBP–CTb pre-treated with Aurora A (+), parent: est. 1.4
  response: 1.2 a.u.
Repeat Aurora #2, MBP–CTb pre-treated with Aurora A (+), parent: est. 1.5
  response: 1.2 a.u.

## MBP–CTb (WT Ana1 CTb fragment), phosphorylated by PLK1 in vitro (from UniProt Q9VC64) S10T
Repeat PLK1 #1, MBP–CTb pre-treated with PLK1 (+), parent: est. 1.7
  response: 1.1 a.u.
Repeat PLK1 #2, MBP–CTb pre-treated with PLK1 (+), parent: est. 1.9
  response: 1.5 a.u.
Repeat PLK1 #3, MBP–CTb pre-treated with PLK1 (+), parent: est. 1.8
  response: 1.4 a.u.
Repeat PLK1 #4, MBP–CTb pre-treated with PLK1 (+), parent: est. 2.2
  response: 1.3 a.u.

## MBP–CTb (WT Ana1 CTb fragment), pre-treated with buffer S10T
Repeat Aurora #1, no kinase (-), parent: est. 1.4
  response: 1 a.u.
Repeat Aurora #2, no kinase (-), parent: est. 1.3
  response: 1 a.u.
Repeat PLK1 #1, no kinase (-), parent: est. 1.1
  response: 1 a.u.
Repeat PLK1 #2, no kinase (-), parent: est. 1.2
  response: 1 a.u.
Repeat PLK1 #3, no kinase (-), parent: est. 1.3
  response: 1 a.u.
Repeat PLK1 #4, no kinase (-), parent: est. 1.3
  response: 1 a.u.

## MBP–CTa (WT Ana1 CTa fragment), pre-treated with PLK1 S10T
Single repeat PLK1 + CTa, MBP–CTa pre-treated with PLK1 (+), parent: est. 1.0
  response: 1.1 a.u.
